Measurements from article PMC6602471.

molecular target: T1, ETS1 (Homo sapiens) (UniProt P14921); experiment: PBM; settings: Custom protein-binding microarray; buffer, salt, pH and temperature not given in the material
T1 sequence (P14921 whole entry, looked up): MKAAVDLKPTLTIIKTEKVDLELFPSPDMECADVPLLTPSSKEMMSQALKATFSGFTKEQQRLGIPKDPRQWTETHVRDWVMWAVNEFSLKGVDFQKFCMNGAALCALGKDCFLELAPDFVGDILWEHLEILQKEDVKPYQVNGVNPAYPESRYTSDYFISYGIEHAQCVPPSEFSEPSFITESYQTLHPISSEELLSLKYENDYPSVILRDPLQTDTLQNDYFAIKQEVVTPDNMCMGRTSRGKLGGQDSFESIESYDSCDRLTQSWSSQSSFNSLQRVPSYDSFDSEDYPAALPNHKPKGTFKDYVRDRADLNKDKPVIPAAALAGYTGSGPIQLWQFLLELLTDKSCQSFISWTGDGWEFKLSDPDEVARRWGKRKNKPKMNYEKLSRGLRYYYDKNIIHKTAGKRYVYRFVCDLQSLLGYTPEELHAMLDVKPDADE

| Sequence | binding signal [log signal] |
| --- | --- |
| CGGAAGTGTCGTAAACGTCGGAAATCCGGTTCTTCTGTCTTGATTCGCTTGACGCTGCTG (double strand) [seq01_p23 T>A] | 9.71 |
| CGGAAGTGTCGTAAACGTCGGACATCCGGTTCTTCTGTCTTGATTCGCTTGACGCTGCTG (double strand) [seq01_p23 T>C] | 12.6 |
| CGGAAGTGTCGTAAACGTCGGAGATCCGGTTCTTCTGTCTTGATTCGCTTGACGCTGCTG (double strand) [seq01_p23 T>G] | 8.83 |
| CGGAAGTGTCGTAAACGTCGGATAACCGGTTCTTCTGTCTTGATTCGCTTGACGCTGCTG (double strand) [seq01_p25 T>A] | 8.34 |
| CGGAAGTGTCGTAAACGTCGGATACCCGGTTCTTCTGTCTTGATTCGCTTGACGCTGCTG (double strand) [seq01_p25 T>C] | 8.31 |
| CGGAAGTGTCGTAAACGTCGGATAGCCGGTTCTTCTGTCTTGATTCGCTTGACGCTGCTG (double strand) [seq01_p25 T>G] | 8.18 |
| CGGAAGTGTCGTAAACGTCGGATATACGGTTCTTCTGTCTTGATTCGCTTGACGCTGCTG (double strand) [seq01_p26 C>A] | 9.21 |
| CGGAAGTGTCGTAAACGTCGGATATCAGGTTCTTCTGTCTTGATTCGCTTGACGCTGCTG (double strand) [seq01_p27 C>A] | 8.51 |
| CGGAAGTGTCGTAAACGTCGGATATCCAGTTCTTCTGTCTTGATTCGCTTGACGCTGCTG (double strand) [seq01_p28 G>A] | 8.64 |
| CGGAAGTGTCGTAAACGTCGGATATCCCGTTCTTCTGTCTTGATTCGCTTGACGCTGCTG (double strand) [seq01_p28 G>C] | 8.7 |
| CGGAAGTGTCGTAAACGTCGGATATCCGATTCTTCTGTCTTGATTCGCTTGACGCTGCTG (double strand) [seq01_p29 G>A] | 8.64 |
| CGGAAGTGTCGTAAACGTCGGATATCCGCTTCTTCTGTCTTGATTCGCTTGACGCTGCTG (double strand) [seq01_p29 G>C] | 10.1 |
| CGGAAGTGTCGTAAACGTCGGATATCCGGATCTTCTGTCTTGATTCGCTTGACGCTGCTG (double strand) [seq01_p30 T>A] | 9.94 |
| CGGAAGTGTCGTAAACGTCGGATATCCGGCTCTTCTGTCTTGATTCGCTTGACGCTGCTG (double strand) [seq01_p30 T>C] | 10.7 |
| CGGAAGTGTCGTAAACGTCGGATATCCGGGTCTTCTGTCTTGATTCGCTTGACGCTGCTG (double strand) [seq01_p30 T>G] | 10.2 |
| CGGAAGTGTCGTAAACGTCGGATATCCGGTTCTTCTGTCTTGATTCGCTTGACGCTGCTG (double strand) [seq01_wt0] | 11.9 |
| CGGAAGTGTCGTAAACGTCGGATATCCGTTTCTTCTGTCTTGATTCGCTTGACGCTGCTG (double strand) [seq01_p29 G>T] | 9.45 |
| CGGAAGTGTCGTAAACGTCGGATATCCTGTTCTTCTGTCTTGATTCGCTTGACGCTGCTG (double strand) [seq01_p28 G>T] | 10.1 |
| CGGAAGTGTCGTAAACGTCGGATATCGGGTTCTTCTGTCTTGATTCGCTTGACGCTGCTG (double strand) [seq01_p27 C>G] | 8.65 |
| CGGAAGTGTCGTAAACGTCGGATATCTGGTTCTTCTGTCTTGATTCGCTTGACGCTGCTG (double strand) [seq01_p27 C>T] | 8.37 |
| CGGAAGTGTCGTAAACGTCGGATATGCGGTTCTTCTGTCTTGATTCGCTTGACGCTGCTG (double strand) [seq01_p26 C>G] | 8.38 |
| CGGAAGTGTCGTAAACGTCGGATATTCGGTTCTTCTGTCTTGATTCGCTTGACGCTGCTG (double strand) [seq01_p26 C>T] | 8.55 |
| CGGAAGTGTCGTAAACGTCGGATCTCCGGTTCTTCTGTCTTGATTCGCTTGACGCTGCTG (double strand) [seq01_p24 A>C] | 8.47 |
| CGGAAGTGTCGTAAACGTCGGATGTCCGGTTCTTCTGTCTTGATTCGCTTGACGCTGCTG (double strand) [seq01_p24 A>G] | 9.65 |
| CGGAAGTGTCGTAAACGTCGGATTTCCGGTTCTTCTGTCTTGATTCGCTTGACGCTGCTG (double strand) [seq01_p24 A>T] | 12.5 |
| CGGAAGTGTCGTAAACGTCGGCTATCCGGTTCTTCTGTCTTGATTCGCTTGACGCTGCTG (double strand) [seq01_p22 A>C] | 8.79 |
| CGGAAGTGTCGTAAACGTCGGGTATCCGGTTCTTCTGTCTTGATTCGCTTGACGCTGCTG (double strand) [seq01_p22 A>G] | 10.5 |
| CGGAAGTGTCGTAAACGTCGGTTATCCGGTTCTTCTGTCTTGATTCGCTTGACGCTGCTG (double strand) [seq01_p22 A>T] | 9.21 |
| GCTGCTGCGGTGCATACCCCACCGGATGTGACCCCGGTCTTGATTCGCTTGACGCTGCTG (double strand) [seq02_wt0] | 10.2 |
| GGAAAAAGGCCCAGGGTAACACCGGAAGTGGGCTTAGTCTTGATTCGCTTGACGCTGCTG (double strand) [seq04_wt0] | 12 |
